Test results taken from publication PMC3853347.

How the values were obtained:
[1] = molecular target: Flag-TDRD3 CTD-deletion mutant; test: co-IP
[2] = molecular target: Flag-TDRD3 Tudor-deletion mutant (UniProt Q9H7E2); test: co-IP
Chain of Flag-TDRD3 Tudor-deletion mutant (Q9H7E2 whole entry, stated change not applied): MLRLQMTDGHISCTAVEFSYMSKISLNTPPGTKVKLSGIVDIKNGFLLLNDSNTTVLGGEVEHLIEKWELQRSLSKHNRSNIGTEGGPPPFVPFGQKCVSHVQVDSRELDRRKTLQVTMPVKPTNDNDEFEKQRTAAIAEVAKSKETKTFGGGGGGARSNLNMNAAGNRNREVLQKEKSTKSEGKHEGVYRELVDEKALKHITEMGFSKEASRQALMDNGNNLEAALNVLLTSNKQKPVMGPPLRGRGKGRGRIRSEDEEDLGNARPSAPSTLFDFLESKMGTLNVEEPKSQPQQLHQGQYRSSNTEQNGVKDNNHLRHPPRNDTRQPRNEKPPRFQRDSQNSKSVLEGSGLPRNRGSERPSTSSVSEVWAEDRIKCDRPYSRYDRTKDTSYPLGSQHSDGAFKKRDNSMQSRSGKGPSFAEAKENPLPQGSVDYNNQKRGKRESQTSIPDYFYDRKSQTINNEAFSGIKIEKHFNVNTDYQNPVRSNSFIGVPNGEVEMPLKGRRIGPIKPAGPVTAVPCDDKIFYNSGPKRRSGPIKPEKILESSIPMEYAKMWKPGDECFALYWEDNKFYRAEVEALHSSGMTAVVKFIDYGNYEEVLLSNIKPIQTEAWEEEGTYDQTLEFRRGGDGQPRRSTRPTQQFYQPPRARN

Chain of Flag-TDRD3 CTD-deletion mutant (Q9H7E2 whole entry, stated change not applied): as above
Chain of FXR2, endogenous human (P51116 whole entry): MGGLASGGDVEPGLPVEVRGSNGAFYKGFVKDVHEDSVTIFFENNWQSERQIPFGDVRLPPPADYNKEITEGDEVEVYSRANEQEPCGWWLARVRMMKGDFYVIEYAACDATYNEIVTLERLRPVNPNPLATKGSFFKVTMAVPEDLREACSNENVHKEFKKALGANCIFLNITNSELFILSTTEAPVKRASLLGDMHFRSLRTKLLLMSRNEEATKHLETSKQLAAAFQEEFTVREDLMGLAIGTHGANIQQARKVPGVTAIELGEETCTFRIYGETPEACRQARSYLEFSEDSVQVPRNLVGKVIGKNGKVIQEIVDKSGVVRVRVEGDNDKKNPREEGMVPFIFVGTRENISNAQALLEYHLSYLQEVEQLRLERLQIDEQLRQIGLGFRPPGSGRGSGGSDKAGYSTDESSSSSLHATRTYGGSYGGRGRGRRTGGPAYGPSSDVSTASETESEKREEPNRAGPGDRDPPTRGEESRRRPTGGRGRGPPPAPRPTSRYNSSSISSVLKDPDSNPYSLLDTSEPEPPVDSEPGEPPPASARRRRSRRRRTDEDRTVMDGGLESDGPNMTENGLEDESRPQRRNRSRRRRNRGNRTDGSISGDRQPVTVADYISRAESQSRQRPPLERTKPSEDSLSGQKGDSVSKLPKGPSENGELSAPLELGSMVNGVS
Chain of FXR1, endogenous human (P51114 whole entry): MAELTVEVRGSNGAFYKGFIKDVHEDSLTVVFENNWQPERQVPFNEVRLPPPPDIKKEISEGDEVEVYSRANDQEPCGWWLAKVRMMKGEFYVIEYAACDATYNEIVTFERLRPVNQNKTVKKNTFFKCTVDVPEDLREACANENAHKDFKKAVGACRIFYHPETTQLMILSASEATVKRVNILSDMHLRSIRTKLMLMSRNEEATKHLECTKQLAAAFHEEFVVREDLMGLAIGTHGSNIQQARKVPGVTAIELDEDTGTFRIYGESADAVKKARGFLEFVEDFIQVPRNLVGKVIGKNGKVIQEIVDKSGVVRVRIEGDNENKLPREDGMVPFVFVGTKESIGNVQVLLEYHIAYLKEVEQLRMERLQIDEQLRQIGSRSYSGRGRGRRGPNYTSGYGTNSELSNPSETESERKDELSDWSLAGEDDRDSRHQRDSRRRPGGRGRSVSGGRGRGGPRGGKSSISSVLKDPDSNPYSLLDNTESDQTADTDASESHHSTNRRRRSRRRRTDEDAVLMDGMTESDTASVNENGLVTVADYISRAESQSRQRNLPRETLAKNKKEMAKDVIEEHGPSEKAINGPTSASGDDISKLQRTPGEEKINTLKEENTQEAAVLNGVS

Substance | reduction of the co-immunoprecipitated amount against wild-type TDRD3 [1] [%] | reduction of the co-immunoprecipitated amount against wild-type TDRD3 [2] [%]
FXR1, endogenous human (from UniProt P51114 1-621) (natural protein) | 80 | 30
FXR2, endogenous human (from UniProt P51116 1-673) (natural protein) | 80 | 30
FMRP, endogenous human (from UniProt Q06787 1-632) (natural protein) | 80 | 30
